Measured values: publication doi:10.64898/2025.12.08.692997 (bioRxiv, 2025)
Like-named read-outs stand apart in the source and are kept apart here.

Tests used:
[1] = target: Rat EphB1-Fc ectodomain (rat) (UniProt P09759); assay: BLI
[2] = target: Mouse EphrinB2-His ectodomain (mouse) (UniProt P52800); assay: mass photometry
[3] = target: Rat EphB1-Fc ectodomain (rat) (UniProt P09759); assay: AlphaScreen or HTRF
[4] = target: T1, Human EphB1-His ectodomain (human, UniProt P54762 18-540); assay: BLI
T1 sequence: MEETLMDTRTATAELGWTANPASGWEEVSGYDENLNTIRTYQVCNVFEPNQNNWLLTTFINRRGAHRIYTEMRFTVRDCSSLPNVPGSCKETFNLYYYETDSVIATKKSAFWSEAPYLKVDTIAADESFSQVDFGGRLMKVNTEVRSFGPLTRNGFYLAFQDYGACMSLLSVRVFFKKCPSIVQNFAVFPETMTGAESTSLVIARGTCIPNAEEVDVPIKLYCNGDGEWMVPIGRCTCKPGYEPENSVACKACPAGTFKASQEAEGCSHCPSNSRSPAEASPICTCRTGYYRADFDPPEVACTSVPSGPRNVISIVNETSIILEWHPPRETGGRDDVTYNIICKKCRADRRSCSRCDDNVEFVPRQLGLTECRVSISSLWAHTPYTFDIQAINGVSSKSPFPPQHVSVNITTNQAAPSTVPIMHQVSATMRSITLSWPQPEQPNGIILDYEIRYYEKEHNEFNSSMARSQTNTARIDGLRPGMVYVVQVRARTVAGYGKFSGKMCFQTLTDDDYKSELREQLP

[5] = target: T2, Human EphB2-His ectodomain (human, UniProt P29323 19-543); assay: BLI
T2 sequence: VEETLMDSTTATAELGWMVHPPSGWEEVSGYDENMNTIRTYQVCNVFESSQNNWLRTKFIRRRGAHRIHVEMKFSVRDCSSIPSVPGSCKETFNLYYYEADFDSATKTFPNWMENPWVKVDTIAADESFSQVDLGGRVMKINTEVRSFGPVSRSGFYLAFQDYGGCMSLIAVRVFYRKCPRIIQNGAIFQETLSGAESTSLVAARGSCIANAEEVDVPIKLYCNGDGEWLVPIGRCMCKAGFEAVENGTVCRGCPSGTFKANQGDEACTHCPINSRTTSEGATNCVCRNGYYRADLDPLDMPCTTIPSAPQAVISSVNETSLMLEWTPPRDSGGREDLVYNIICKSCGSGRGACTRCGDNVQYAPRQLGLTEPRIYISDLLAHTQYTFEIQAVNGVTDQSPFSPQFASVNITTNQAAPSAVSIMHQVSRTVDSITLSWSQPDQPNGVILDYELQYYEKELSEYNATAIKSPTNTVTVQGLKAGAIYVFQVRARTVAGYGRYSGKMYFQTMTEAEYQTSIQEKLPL

[6] = target: T3, Human EphB2-His ectodomain (human), P29323; assay: mass photometry; conditions: remark: other sources report otherwise
T3 chain: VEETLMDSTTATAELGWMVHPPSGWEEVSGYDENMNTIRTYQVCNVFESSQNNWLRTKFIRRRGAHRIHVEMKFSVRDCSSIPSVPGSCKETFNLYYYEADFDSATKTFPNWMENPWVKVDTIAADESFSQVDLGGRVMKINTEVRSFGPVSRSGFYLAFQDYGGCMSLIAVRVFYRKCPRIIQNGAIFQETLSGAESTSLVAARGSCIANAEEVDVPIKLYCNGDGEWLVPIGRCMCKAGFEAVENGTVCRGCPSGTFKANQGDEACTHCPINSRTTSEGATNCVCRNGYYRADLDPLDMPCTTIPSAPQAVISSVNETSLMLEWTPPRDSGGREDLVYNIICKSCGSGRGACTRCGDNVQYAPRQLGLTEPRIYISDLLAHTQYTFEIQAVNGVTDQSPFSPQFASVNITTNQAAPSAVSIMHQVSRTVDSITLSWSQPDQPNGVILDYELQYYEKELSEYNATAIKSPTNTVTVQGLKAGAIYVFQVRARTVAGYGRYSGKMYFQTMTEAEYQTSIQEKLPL

[7] = target: T2, Human EphB2-His ectodomain; assay: BLI; remark: listed apart in the source
[8] = target: T4, Human EphB4-His ectodomain (human, UniProt P54760 16-539); assay: BLI
T4 sequence: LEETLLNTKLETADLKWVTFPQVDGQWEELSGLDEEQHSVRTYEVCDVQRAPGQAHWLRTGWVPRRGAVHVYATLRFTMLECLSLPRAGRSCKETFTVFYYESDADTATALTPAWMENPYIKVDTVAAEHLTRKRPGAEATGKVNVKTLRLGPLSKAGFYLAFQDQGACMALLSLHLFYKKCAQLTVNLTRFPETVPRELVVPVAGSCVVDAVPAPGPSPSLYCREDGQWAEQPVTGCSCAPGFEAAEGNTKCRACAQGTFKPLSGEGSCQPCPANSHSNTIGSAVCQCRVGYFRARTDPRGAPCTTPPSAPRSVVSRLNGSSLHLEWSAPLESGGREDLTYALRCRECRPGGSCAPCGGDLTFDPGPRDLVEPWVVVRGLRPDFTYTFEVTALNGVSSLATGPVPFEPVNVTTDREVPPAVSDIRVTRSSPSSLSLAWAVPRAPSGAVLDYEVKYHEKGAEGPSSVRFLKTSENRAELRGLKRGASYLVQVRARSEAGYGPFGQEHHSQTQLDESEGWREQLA

Mouse EphrinB2-His ectodomain (from UniProt P52800 29-232) (domain or fragment)
KD1 (2:1 heterologous interaction model) [1]: < 1 pM | KD2 (dimer formation, 2:1 model) [1]: 39.7 nM | stoichiometry N [2]: 2

soluble Reelin protein (from UniProt Q60841 27-3461) (natural protein)
IC50 [3]: 50 nM

B1: Human EphrinB1-Fc ectodomain (Fc fusion)
chain: LAKNLEPVSWSSLNPKFLSGKGLVIYPKIGDKLDIICPRAEAGRPYEYYKLYLVRPEQAAACSTVLDPNVLVTCNRPEQEIRFTIKFQEFSPNYMGLEFKKHHDYYITSTSNGSLEGLENREGGVCRTRTMKIIMKVGQDPNAVTPEQLTTSRPSKEADNTVKMATQAPGSRGSLGDSDGKHETVNQEEKSGPGASGGSSGDPDGFFNS
binding result [4]: binds | binding result [5]: binds

B2: Human EphB2-His ectodomain, P29323 19-543 (domain or fragment)
chain: VEETLMDSTTATAELGWMVHPPSGWEEVSGYDENMNTIRTYQVCNVFESSQNNWLRTKFIRRRGAHRIHVEMKFSVRDCSSIPSVPGSCKETFNLYYYEADFDSATKTFPNWMENPWVKVDTIAADESFSQVDLGGRVMKINTEVRSFGPVSRSGFYLAFQDYGGCMSLIAVRVFYRKCPRIIQNGAIFQETLSGAESTSLVAARGSCIANAEEVDVPIKLYCNGDGEWLVPIGRCMCKAGFEAVENGTVCRGCPSGTFKANQGDEACTHCPINSRTTSEGATNCVCRNGYYRADLDPLDMPCTTIPSAPQAVISSVNETSLMLEWTPPRDSGGREDLVYNIICKSCGSGRGACTRCGDNVQYAPRQLGLTEPRIYISDLLAHTQYTFEIQAVNGVTDQSPFSPQFASVNITTNQAAPSAVSIMHQVSRTVDSITLSWSQPDQPNGVILDYELQYYEKELSEYNATAIKSPTNTVTVQGLKAGAIYVFQVRARTVAGYGRYSGKMYFQTMTEAEYQTSIQEKLPL
stoichiometry N [6]: 2

B3: Human EphrinB3-Fc ectodomain (Fc fusion)
chain: LSLEPVYWNSANKRFQAEGGYVLYPQIGDRLDLLCPRARPPGPHSSPNYEFYKLYLVGGAQGRRCEAPPAPNLLLTCDRPDLDLRFTIKFQEYSPNLWGHEFRSHHDYYIIATSDGTREGLESLQGGVCLTRGMKVLLRVGQSPRGGAVPRKPVSEMPMERDRGAAHSLEPGKENLPGDPTSNATSRGAEGPLPPPS
binding result [4]: binds | binding result [5]: binds

B4: Human EphrinB2-Fc ectodomain (Fc fusion)
chain: IVLEPIYWNSSNSKFLPGQGLVLYPQIGDKLDIICPKVDSKTVGQYEYYKVYMVDKDQADRCTIKKENTPLLNCAKPDQDIKFTIKFQEFSPNLWGLEFQKNKDYYIISTSNGSLEGLDNQEGGVCQTRAMKILMKVGQDASSAGSTRNKDPTRRPELEAGTNGRSSTTSPFVKPNPGSSTDGNSAGHSGNNILGSEVALFA
binding result [7]: binds | binding result [8]: binds | binding result [4]: binds
